Experimental data taken from the nanobody polyreactivity screen of Harvey et al. (2022).

Assay: yeast display, Sf9 membrane polyspecificity reagent, FACS + sequencing; frameworks hold sequencing errors
Method in brief: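 Nanobodies from a synthetic yeast display library (Saccharomyces cerevisiae BJ5465), induced 36–48 hours with galactose, were stained 1 hour at 4 °C with 10% biotinylated, detergent-solubilized Sf9 membrane reagent, enriched on streptavidin microbeads, then FACS-sorted. Anti-HA (expression) and streptavidin (reagent binding) fluorescence set low and high (top ~1%) gates. Polyreactivity labels come from the gate of origin. Genes were colony-PCR amplified, MiSeq 2 × 250 sequenced and filtered by CDR length.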

## QVQLVESGGGLVQAGGSLRLSCAASGFTFSNYAMGWYRQAPGKERELVAAISKRGGSTYYADSVKGRFTISRDNAKNTVYLQRNSLKPEDTAVYYCAAYGGYIRRSVPVWGYYYWGQGTQVTVSS
  polyreactivity (PSR sort gate): high polyreactivity

## QVQLVESGGGLVQAGGSLRLSCAASGFTFSNYAMGWYRQAPGKERELVAAISRSGGSTYYADSVKGRFTISRDNAKNTVYLQMNSLKPEDTAVYYCNADRYRVWYRRYDYWGQGTQVTVSS
  polyreactivity (PSR sort gate): high polyreactivity

## QVQLVESGGGLVQAGGSLRLSCAASGFTFSPNAMGWYRQAHGKESELVAAIDWSGDRTYYADSVKGRFTISRDNAKKTVYLQINSLKPEDTAVYYCNVVRRSPGDYTYYYWGQGTQVTVSS
  polyreactivity (PSR sort gate): low polyreactivity

## QVQLVESGGGLVQAGGSLRLSCAASGFTFSPNARGWYRQAPGKERELVAAISKGGSSTYYADSVKGRFTISRDNAKNTVYLQMNSLKPEDTAVYYCARPSTHKGYDYWGQGTQVTVSS
  polyreactivity (PSR sort gate): high polyreactivity

## QVQLVESGGGLVQAGGSLRLSCAASGFTFSPYTMGWSRQAPGKERELVATIRYDGTSTYYADSVKGRFTISRDNAKNTVYLQMNSLKREDTAVYYCAAEIWRVYSTFYYWGQGTQVSVSS
  polyreactivity (PSR sort gate): low polyreactivity

## QVQLVESGGGLVQAGGSLRLSCAASGFTFSQYAMGWYRQAPGKERELVAAISRSGGSTYYADSVKGRFTISRDNAKNTVYLQMNSLKPEDTAVYYCAAQPGRRAGRSGFDYWGQCTQVTVSS
  polyreactivity (PSR sort gate): high polyreactivity

## QVQLVESGGGLVQAGGSLRLSCAASGFTFSRNAMGWYRQAPGKERELVAAIDSGGSTDYADSVKGRFTISRANAKKTVYLQMNSLKPEDTAVYYCAKASSATRYVQLRQDYDYWGQGTQVTVSS
  polyreactivity (PSR sort gate): low polyreactivity

## QVQLVESGGGLVQAGGSLRLSCAASGFTFSRNAMGWYRQAPGKERELVAAITWSGGRTYYADSVKGRFTISRDNAKNTVYLQMNSLKPEDTAVYYCAARKYHLRSAYDYWGQGTQVTVSS
  polyreactivity (PSR sort gate): low polyreactivity

## QVQLVESGGGLVQAGGSLRLSCAASGFTFSRYAMGWYRQAPGKERELVAAISLRGGRTYYADSVKGRFTISRDKTKNSVYLQMNSLKPEDTAVYYCNRDYRGPYYYWGQGSQVTVSS
  polyreactivity (PSR sort gate): high polyreactivity

## QVQLVESGGGLVQAGGSLRLSCAASGFTFSRYAMGWYRQAPGKERELVAAITSRGGSTYYADSVKGRFTISRDNAKNTVYLQMNSLKPEDTAVYYCAARGWYATWLYYYWGQGTQVTVSS
  polyreactivity (PSR sort gate): high polyreactivity

## QVQLVESGGGLVQAGGSLRLSCAASGFTFSRYAMVWYRKAPGKDRELVAVISSSGSRTYYADSVKGRFSISRHNAKNTVHLQMNSLQPEDTAVYYGAAKSYTVTAYEYWGQGTQVTVSS
  polyreactivity (PSR sort gate): high polyreactivity

## QVQLVESGGGLVQAGGSLRLSCAASGFTFSSDAMGWYRQAPGKERELVAAITWRGGTTYYADSVKGRFTISRDNAKNTVYLQMNSLKPEDTAVYYCAVDFKRVIRGSRWGDYWGQGTQVTVSS
  polyreactivity (PSR sort gate): high polyreactivity

## QVQLVESGGGLVQAGGSLRLSCAASGFTFSSNAMGWYRQAPGKERELVAAISFNSTSTYYADSVKGRFTISRDNAKNTVYIQMNSLKPEDTAVYYCAKESPPAEGDSGYDYWGQGTQVTVSS
  polyreactivity (PSR sort gate): low polyreactivity

## QVQLVESGGGLVQAGGSLRLSCAASGFTFSSYALGWSRQAPGKERELVAAISTRGGSTYYADSVKGRFTISRDNAKNTVYLQRNSLKPEDTADYYCATGGRGGRRYEYWGQGTQVTVSS
  polyreactivity (PSR sort gate): low polyreactivity

## QVQLVESGGGLVQAGGSLRLSCAASGFTFSSYAMGWYRQAPGKERELVAAINWSGGSTYYADSVKGRFTISRDNAKNTVYLQMNSLKPEDTAVYYCATSVKDRYWVDYWGQGTQVTVSS
  polyreactivity (PSR sort gate): high polyreactivity

## QVQLVESGGGLVQAGGSLRLSCAASGFTFSSYAMGWYRQAPGKERELVAAITQSGGRTYYADSVKGRFTISRDNAKNTVYLQMNSLKPEDTAVYSCAADVTLWYDYWGQGTQVTVSS
  polyreactivity (PSR sort gate): low polyreactivity

## QVQLVESGGGLVQAGGSLRLSCAASGFTFSSYARGWYRQAPGKEREFVAAIRFSGGSTYYADSVKGRFTISRDNAMNTVYLQMNSLKPVDTAVYYCAKRWGIWPRGYYWGQGTQVSVSS
  polyreactivity (PSR sort gate): low polyreactivity
